According to patent US20220162310A1 (GREEN CROSS, published 2022):
Residue numbers refer to the chain shown, from its start. Like-named read-outs stand apart in the source and are kept apart here. Each block holds one binder with its values, some of them ahead of it.

Columns and labels:
human TIGIT-His antigen [1] = biological target: T1, human TIGIT-His antigen (human, UniProt Q495A1 22-141); test: Octet (BLI), human TIGIT-HIS on penta-His sensor, antibody in solution
T1 construct: not shown: His tag
T1 chain: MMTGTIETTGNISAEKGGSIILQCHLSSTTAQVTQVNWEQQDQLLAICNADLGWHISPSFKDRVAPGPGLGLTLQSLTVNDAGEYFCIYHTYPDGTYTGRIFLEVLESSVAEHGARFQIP

human TIGIT-His antigen [2] = biological target: T1, human TIGIT-His antigen; test: SPR (Biacore), antibody (1G8 IgG4) captured on an anti-protein A CM5 chip, TIGIT-HIS as analyte in 1/2 serial dilution, contact 120 s, dissociation 600 s
Method: (§1) 10 μg/ml of anti-protein A was prepared by diluting the same in an acetate 4.0 buffer. 100 nM NHS, 400 mM EDC and 1 M ethanolamine were prepared. The sensor chip used herein was a CM5. The contact time was set at 300s (5 min), the flow rate was set at 5 μg/ml, and the immobilization level was set at 2,500 RU. After performing running, whether the RU reached the target level was monitored in the system control window.
(§2) When running was completed, ka, kd, and KD were obtained by fitting using evaluation software.

human TIGIT-Fc antigen [3] = biological target: T2, human TIGIT-Fc antigen (human, UniProt Q495A1 22-141); test: ELISA, IgG titrated on plate-coated human TIGIT-Fc
T2 construct: not shown: Fc part
T2 chain: T1 chain

[4] = biological target: T3, TIGIT on the TIGIT-overexpressing Jurkat cell line (Jurkat-TIGIT) (Homo sapiens (Human), UniProt Q495A1 22-244); test: flow cytometry on Jurkat-TIGIT cells, antibody 25 to 0.00032 ug/ml, PE goat anti-human Fab'2, MFI
T3 construct: Jurkat E6.1 cells transfected with 'TIGIT cDNA'; also called TIGIT expressed on the cell surface
T3 sequence: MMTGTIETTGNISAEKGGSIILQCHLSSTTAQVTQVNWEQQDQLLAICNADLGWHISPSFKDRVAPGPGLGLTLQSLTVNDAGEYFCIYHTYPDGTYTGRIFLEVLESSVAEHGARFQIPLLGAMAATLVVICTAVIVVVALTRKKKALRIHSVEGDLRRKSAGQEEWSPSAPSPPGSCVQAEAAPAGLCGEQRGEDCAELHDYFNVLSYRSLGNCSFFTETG
Method: The cells were resuspended in FACS buffer so that the number of cells was 3×10⁶ cells/ml, and 100 μl of the suspension was added to each well of a U-bottom 96-well plate. Then, the cells and culture solution of each well were recovered and centrifuged at 1,500 rpm, and then the supernatant was discarded. […] This series of processes was repeated twice. Phycoerythrin (hereinafter, referred to as “PE”)-conjugated goat anti-human Fab′2 (Sigma; Cat. #P8047) was diluted in FACS buffer at a volume ratio of 1:500, 100 μl thereof was added to each well, and the reaction was allowed to proceed in the dark at 4° C. for 30 minutes. The cells reacted with PE were recovered, resuspended in FACS buffer, and centrifuged at 1,500 rpm, the supernatant was discarded, and the residue was washed. This series of processes was repeated twice. […] The cells reacted with the fixation buffer were recovered, resuspended in FACS buffer, and centrifuged at 1,500 rpm, the supernatant was discarded, and the residue was washed. This series of processes was repeated twice. The washed cells were resuspended in 200 μl of FACS buffer, and then the median fluorescence intensity (MFI) of PE with which the cells were labeled was compared using a FACS LSR-Fortessa instrument. All FACS analysis was performed using FlowJo software.

[5] = biological target: T4, mouse TIGIT on transfected HEK293 cells (mouse, UniProt P86176 29-249); test: flow cytometry on HEK293 cells transfected with mouse TIGIT
T4 construct: whole, on cells; GFP-expressing cells were gated; also called TIGIT of mice
T4 sequence (looked up): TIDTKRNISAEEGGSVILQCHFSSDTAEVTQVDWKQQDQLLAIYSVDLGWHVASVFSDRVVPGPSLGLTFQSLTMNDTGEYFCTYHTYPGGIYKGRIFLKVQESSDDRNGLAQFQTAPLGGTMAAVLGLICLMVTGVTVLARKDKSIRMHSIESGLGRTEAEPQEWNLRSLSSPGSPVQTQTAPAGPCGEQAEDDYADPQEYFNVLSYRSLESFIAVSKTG
Method: The result was washed once with PBS, and then the cells were resuspended in FACS buffer to a concentration of 5×10⁵ cells/100 μl. 1 μl of a human Fc block solution was added to each sample and reacted at 4° C. for 10 minutes. […] The result was centrifuged in 200 μl of FACS buffer at 1,200 rpm for 5 minutes to remove the supernatant. The cells were resuspended in 300 μl of fixation buffer. The cells expressing GFP were screened using a FACS LSR-Fortessa instrument, and TIGIT candidate antibodies were identified using a PE fluorescence channel and analyzed using FlowJo software.

human TIGIT-Fc antigen [6] = biological target: T2, human TIGIT-Fc antigen; test: ELISA, IgG titrated on plate-coated human TIGIT-Fc
Method: 50 μl of the human TIGIT-Fc antigen was added at a concentration of 3 μg/ml to an ELISA plate, incubated at 4° C. overnight, and then blocked with 1% BSA in PBS at room temperature for 2 hours. […] The result was washed 3 times with PBST (0.05% Tween 20 in PBS), and 50 μl of anti-His-HRP was diluted 1/1000 in PBS and then reacted at room temperature for 1 hour. The result was washed 3 times with PBST (0.05% Tween 20 in PBS), and 50 μl of a TMB solution was added thereto. The result was allowed to react at room temperature for 5 minutes, 50 μl of a TMB stop solution was added thereto, and the absorbance was measured at 450 nm in an ELISA leader.

[7] = biological target: T3, TIGIT on the TIGIT-overexpressing …; test: competition in flow cytometry: Jurkat-TIGIT cells preloaded with PVR-Fc, then antibody; PVR left on the cells detected with anti-PVR-PE, MFI falls with the antibody concentration; the sheet calls the half-maximal value EC50
Method: The TIGIT-overexpressing cell line (Jurkat-TIGIT) was resuspended in DPBS supplemented with 2% (v/v) FBS (hereinafter, FACS buffer), centrifuged at 1,500 rpm, and resuspended in FACS buffer so that the number of cells was 3×10⁶ cells/ml, and 100 μl of the suspension was added to each well of a U-bottom 96-well plate. Then, the cells and culture solution of each well were recovered and centrifuged at 1,500 rpm, and then the supernatant was discarded.
This series of processes was repeated twice. […] This series of processes was repeated twice. […] This series of processes was repeated twice. […] The cells reacted with the fixation buffer were recovered, resuspended in FACS buffer, and centrifuged at 1,500 rpm, the supernatant was discarded, and the residue was washed. This series of processes was repeated twice. The washed cells were resuspended in 200 μl of FACS buffer. Then, the median fluorescence intensity (MFI) of PE with which the cells were labeled was compared using a FACS LSR-Fortessa instrument. All FACS analysis was performed using FlowJo software.

[8] = biological target: T5, TIGIT on thaw-and-use TIGIT effector cells (TIGIT/CD155 blockade bioassay kit, Promega J2305) (UniProt Q495A1 22-244, limits assumed); test: cell-based or functional assay
T5 sequence (looked up): T3 sequence with A82T

[9] = biological target: T5, TIGIT on thaw-and-use TIGIT effector …; test: cell-based or functional assay; remark: listed apart in the source
human TIGIT-His antigen [10] = biological target: T1, human TIGIT-His antigen; test: SPR (Biacore), antibody captured on an anti-protein A CM5 chip, TIGIT-HIS as analyte in 1/2 serial dilution, contact 120 s, dissociation 600 s
Method: as §1, §2

human TIGIT-His antigen [11] = biological target: T1, human TIGIT-His antigen; test: SPR (Biacore), antibody (WIN-1B6 IgG4) captured on an anti-protein A CM5 chip, TIGIT-HIS as analyte in 1/2 serial dilution, contact 120 s, dissociation 600 s
Method: as §1, §2

Kd (human TIGIT-His antigen [1]): 0.224 nM | koff (human TIGIT-His antigen [1]): 9.32e-05 s⁻¹ | kon (human TIGIT-His antigen [1]): 415000 M⁻¹ s⁻¹ | Kd (human TIGIT-His antigen [2]): 0.59 nM | koff (human TIGIT-His antigen [2]): 0.001 s⁻¹ | kon (human TIGIT-His antigen [2]): 1.78e+06 M⁻¹ s⁻¹ | EC50 (human TIGIT-Fc antigen [3]): ~1 nM | EC50 [4]: 0.017 µg/mL | binding result [5]: no binding (tested: 1 µg/5×10^5 cells) | EC50 (human TIGIT-Fc antigen [6]): 1.63 nM | EC50 [7]: 0.093 µg/mL | EC50 of T-cell activation (luminescence, TIGIT/CD155 blockade bioassay with TIGIT effector cells and CD155 aAPC/CHO-K1 cells) [8]: 2.1 nM
B1: 1G8 (IgG-type anti-TIGIT antibody) (antibody, V domains shown)
VH: EVQLVQSGAEVKKPGASVKVSCKASGYTFTSYYMHWVRQAPGQGLEWMGIINPSGGSTSYAQKFQGRVTMTRDTSTSTVYMELSSLRSEDTAVYYCASRSGSGWFGALDYWGQGTLVTVSS
VL: not shown
notes: section 4.2 is headed 'Conversion to IgG4-Type Anti-TIGIT Antibodies'; also called TIGIT candidate antibody (1G8)

Kd (human TIGIT-His antigen [1]): 1.32 nM | koff (human TIGIT-His antigen [1]): 0.000232 s⁻¹ | kon (human TIGIT-His antigen [1]): 176000 M⁻¹ s⁻¹ | EC50 [4]: 0.08 µg/mL | binding result [5]: no binding (tested: 1 µg/5×10^5 cells) | EC50 (human TIGIT-Fc antigen [6]): 5.35 nM | EC50 [7]: 0.38 µg/mL | EC50 of bioluminescence (RLU), TIGIT/CD155 blockade bioassay: TIGIT effector cells with CD155 aAPC/CHO-K1 cells [9]: 35.7 nM
B2: 1F10 (IgG-type anti-TIGIT antibody) (antibody, V domains shown)
VH: EVQLVESGGGLVKPGGSLRISCAASGFTFSNYNMIWVRQAPGKGLEWVSSISSSASYIYYADSVKGRFTISRDNAKNSLYLQMNSLRAEDTAVYYCARDEGSRDSWNNGPYYYSGMDVWGQGTTVTVSS
VL: AIQMTQSPSSLSASVGDRVTITCRASQSISRYLNWYQHKPGKAPKLLIYGASSLQSGVPSRFRGSGSGTDFTLTISSLQPEDFATYYCQQSYTTPGAFTFGGGTKVEIKR
notes: section 4.2 is headed 'Conversion to IgG4-Type Anti-TIGIT Antibodies'

Kd (human TIGIT-His antigen [10]): 0.375 nM | koff (human TIGIT-His antigen [10]): 0.000233 s⁻¹ | kon (human TIGIT-His antigen [10]): 622000 M⁻¹ s⁻¹ | EC50 of bioluminescence (RLU), TIGIT/CD155 blockade bioassay: TIGIT effector cells with CD155 aAPC/CHO-K1 cells [9]: 6.1 nM
B3: reference antibody (anti-TIGIT) (antibody, V domains shown)
VH: EVQLQQSGPGLVKPSQTLSLTCAISGDSVSSNSAAWNWIRQSPSRGLEWLGKTYYRFKWYSDYAVSVKGRITINPDTSKNQFSLQLNSVTPEDTAVFYCTRESTTYDLLAGPFDYWGQGTLVTVSS
VL: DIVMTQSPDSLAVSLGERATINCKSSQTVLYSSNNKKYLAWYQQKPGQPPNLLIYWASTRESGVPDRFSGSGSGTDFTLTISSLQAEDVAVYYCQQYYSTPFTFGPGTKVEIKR

Kd (human TIGIT-His antigen [1]): 0.937 nM | koff (human TIGIT-His antigen [1]): 0.000528 s⁻¹ | kon (human TIGIT-His antigen [1]): 563000 M⁻¹ s⁻¹ | EC50 (human TIGIT-Fc antigen [3]): ~1 nM | EC50 [4]: 0.021 µg/mL | binding result [5]: no binding (tested: 1 µg/5×10^5 cells) | EC50 (human TIGIT-Fc antigen [6]): 1.73 nM | EC50 [7]: 0.102 µg/mL | EC50 of bioluminescence (RLU), TIGIT/CD155 blockade bioassay: TIGIT effector cells with CD155 aAPC/CHO-K1 cells [9]: 19.1 nM
B4: 1E8 (IgG-type anti-TIGIT antibody) (antibody, V domains shown)
VH: QVQLVQSGTEVKKPGASVKVSCKASGYTFSSYAITWVRQAPGQGLEWMGWISAYNGNTNYAQKLQGRVTMTTDTSTSTAYMELRSLRSDDTAVYYCARVDFWSGYNYFDYWGQGTLVTVSS
VL: DIQMTQSPSSLSASVGDRVTITCRASQGISNYLAWYQQKPGKVPKVLIYAASTLQSGVPSRFSGSGSGTDFTLTISSLQPEDVATYYCQKSNSAPLTFGGGTKVEIKR
notes: as for B2

Kd (human TIGIT-His antigen [11]): 21.4 nM | koff (human TIGIT-His antigen [11]): 0.0245 s⁻¹ | kon (human TIGIT-His antigen [11]): 1.15e+06 M⁻¹ s⁻¹ | Kd (human TIGIT-His antigen [1]): 0.443 nM | koff (human TIGIT-His antigen [1]): 0.000206 s⁻¹ | kon (human TIGIT-His antigen [1]): 465000 M⁻¹ s⁻¹ | EC50 [4]: 0.016 µg/mL | binding result [5]: no binding (tested: 1 µg/5×10^5 cells) | EC50 (human TIGIT-Fc antigen [6]): 0.86 nM | EC50 [7]: 0.068 µg/mL | EC50 of bioluminescence (RLU), TIGIT/CD155 blockade bioassay: TIGIT effector cells with CD155 aAPC/CHO-K1 cells [9]: 11.8 nM
B5: WIN_1B6 (IgG-type anti-TIGIT antibody) (antibody, V domains shown)
VH: QVQLVQSGAEVKKPGASVKVSCKASGYTFTSYGISWVRQAPGQGLEWMGWISAYNGNTNYAQKLQGRVTMTTDTSTSTAYMELRSLRSDDTAVYYCARAGWEQQLGFDYWGQGTLVTVSS
VL: AIQLTQSPSSLSASVGDRVTISCRASQTIRSYLNWYQQKPGKAPKLLIYAASSLQSGVPLRFSGSGSGTDFTLTISSLQPEDFATYYCQQSYSTLPLTFGGGTKVEIKR
notes: as for B2

Kd (human TIGIT-His antigen [1]): 0.571 nM | koff (human TIGIT-His antigen [1]): 0.000278 s⁻¹ | kon (human TIGIT-His antigen [1]): 488000 M⁻¹ s⁻¹ | EC50 (human TIGIT-Fc antigen [3]): ~1 nM | EC50 [4]: 0.017 µg/mL | binding result [5]: no binding (tested: 1 µg/5×10^5 cells) | EC50 (human TIGIT-Fc antigen [6]): 1.75 nM | EC50 [7]: 0.071 µg/mL | EC50 of bioluminescence (RLU), TIGIT/CD155 blockade bioassay: TIGIT effector cells with CD155 aAPC/CHO-K1 cells [9]: 27.3 nM
B6: WIN_1D2 (IgG-type anti-TIGIT antibody) (antibody, V domains shown)
VH: B5 VH
VL: B5 VL with S22T, T28S, R30S, L60S, P96A, L97I, G101Q, K104R, V105L
notes: as for B2
